Consider 2 molecules from patent US20190177705A1 (UNIVERSITEIT GENT, published 2019).

Assay [1] concerns the target Flag-gp130-RTp51 fusion protein (encoded by pMG2-RTp51) (human; HIV1) (UniProt P40189). Description: cell-based or functional assay.
Assay [2] concerns the target T1, HA-Tyk2(C)-p53(N) fusion protein (encoded by pMet7-HA-Tyk2(C)-p53(N)) (human, UniProt P04637 2-72).
T1 construct: range 2-72; Expressed in HEK293-T cells; not shown: HA tag
The assay can be described thus: kinase-substrate sensor assay, rPAPI-luciferase reporter in HEK293-T cells.

Molecule “HA-Tyk2(R1027A)-RTp66 fusion protein (encoded by pMet7-HA-Tyk2(R1027A)-RTp66)” showed an imidazole-dependent induction of the luciferase signal in assay [1] of 36 fold.

B1: unfused gp130 receptor fragment (encoded by pMG1) (other, human, UniProt P40189 760-918, looked up)
chain: STVVHSGYRHQVPSVQVFSRSESTQPLLDSEERPEDLQLVDHVDGGDGILPRQQYFKQNCSQHESSPDISHFERSKQVSSVNEEDFVRLKQQISDHISQSCGSGQMKMFQEVSAADAFGPGTEGQVERFETVGMEAATDEGMPKSYLPQTVRQGGYMPQ
notes: Background control, expressed in HEK293-T cells; also called unfused gp130 fragment
Consider B1, for which the binding result in assay [2] is “no binding”.
